Assay results as given in PMC7596348, “The Iron-Sulfur Flavoprotein DsrL as NAD(P)H:Acceptor Oxidoreductase in Oxidative and Reductive Dissimilatory Sulfur Metabolism” (Frontiers in Microbiology, 2020).

Key:
Assay in all cases: purified protein
[1] = substrate: NC(=O)c1ccc[n+]([C@@H]2O[C@H](COP(=O)(O)OP(=O)(O)OC[C@H]3O[C@@H](n4cnc5c(N)ncnc54)[C@H](OP(=O)(O)O)[C@@H]3O)[C@@H](O)[C@H]2O)c1; type: biochemical, Desulfurella amilsii; conditions: reduced methylviologen as donor, pH 6.5, 45°C
[2] = substrate: NC(=O)C1=CN([C@@H]2O[C@H](COP(=O)(O)OP(=O)(O)OC[C@H]3O[C@@H](n4cnc5c(N)ncnc54)[C@H](OP(=O)(O)O)[C@@H]3O)[C@@H](O)[C@H]2O)C=CC1; type: biochemical, Desulfurella amilsii; conditions: 300 μM MTT, 50 mM potassium phosphate pH 6.5, 45°C
[3] = substrate: NC(=O)C1=CN([C@@H]2O[C@H](COP(=O)(O)OP(=O)(O)OC[C@H]3O[C@@H](n4cnc5c(N)ncnc54)[C@H](O)[C@@H]3O)[C@@H](O)[C@H]2O)C=CC1; type: biochemical, Chlorobaculum tepidum; conditions: 300 μM MTT, 50 mM potassium phosphate pH 8.0, 40°C
[4] = substrate: NC(=O)c1ccc[n+]([C@@H]2O[C@H](COP(=O)(O)OP(=O)(O)OC[C@H]3O[C@@H](n4cnc5c(N)ncnc54)[C@H](O)[C@@H]3O)[C@@H](O)[C@H]2O)c1; type: biochemical, Chlorobaculum tepidum; conditions: reduced methylviologen as donor, pH 8.0, 40°C
[5] = substrate: NC(=O)c1ccc[n+]([C@@H]2O[C@H](COP(=O)(O)OP(=O)(O)OC[C@H]3O[C@@H](n4cnc5c(N)ncnc54)[C@H](OP(=O)(O)O)[C@@H]3O)[C@@H](O)[C@H]2O)c1; type: biochemical, Allochromatium vinosum; conditions: reduced methylviologen as donor, pH 7.0, 30°C
[6] = substrate: NC(=O)C1=CN([C@@H]2O[C@H](COP(=O)(O)OP(=O)(O)OC[C@H]3O[C@@H](n4cnc5c(N)ncnc54)[C@H](O)[C@@H]3O)[C@@H](O)[C@H]2O)C=CC1; type: biochemical, Allochromatium vinosum; conditions: 300 μM MTT, 50 mM potassium phosphate pH 7.0, 30°C
[7] = substrate: NC(=O)C1=CN([C@@H]2O[C@H](COP(=O)(O)OP(=O)(O)OC[C@H]3O[C@@H](n4cnc5c(N)ncnc54)[C@H](OP(=O)(O)O)[C@@H]3O)[C@@H](O)[C@H]2O)C=CC1; type: biochemical, Allochromatium vinosum; conditions: 300 μM MTT, 50 mM potassium phosphate pH 7.0, 30°C
[8] = substrate: NC(=O)c1ccc[n+]([C@@H]2O[C@H](COP(=O)(O)OP(=O)(O)OC[C@H]3O[C@@H](n4cnc5c(N)ncnc54)[C@H](O)[C@@H]3O)[C@@H](O)[C@H]2O)c1; type: biochemical, Allochromatium vinosum; conditions: reduced methylviologen as donor, pH 7.0, 30°C

B1: DaDsrL-2 (Desulfurella amilsii) (protein)
chain: MAVVKVKKSIKSFSKPSGTEYSSDRPIYVEKRPPCSDTCPNGEQVREFLQYIAQAQDYGRTYEEALEGAFYIIAQTNSMPATTGRICPHPCESRCNRKDKDSAVNINASEMFIGDFAVQNKLPLKKLDETYDAKVAVIGSGPSGLSCAYHLARRGVKVTIFEKEEKPGGLLYYGIPNFRLPKEIVSAEIQRIVDLGVDIKYGKAVGKDIGIEDLKKEFDCIYVATGAYKPEKPNLENIDNIKGVYSGLEFLYHFAKGERIDIGKDVVVVGADTAADAAMISKRWGANVTFAYRRTVPDKETFDKKASREAIDAYEEGITFQFATVPVELVSENGKLTGVKFQKIKVGAKDERGHAAQVENIGEPFLVKADAFIYSVGQKPDYSGLEKLLGQSEGFVKIKDNYQVEGQDKVFAGGDVVGPRLMYVTTAIGHGFAAAVNMIEYLTGKKVIEKDTRKVIESDKMHLDLYEAKPRHERKLRDPIERIKDFEPFMNGLSMEEFIEEAKRCMSCGLCFDCGNCFTYCSHSGVKKLPKGQHYEFHLETCDGCMKCFENCPCGYIEKM
notes: full length, C-terminal Strep-tag (… from primer), E. coli BL21(DE3) ΔiscR; primer-coded N-term MAVVKVK, C-term PCGYIEKM; contains YRR motif
Km [1]: 22.0 ± 1.9 µM | Vmax [1]: 88.8 µmol/min/mg | kcat [1]: 94.3 s⁻¹ | kcat/Km [1]: 4.2e+06 M⁻¹ s⁻¹ | Km [2]: 124.5 ± 10.5 µM | Vmax [2]: 103 µmol/min/mg | kcat [2]: 110 s⁻¹ | kcat/Km [2]: 870000 M⁻¹ s⁻¹

B2: CtDsrL-1B (Chlorobaculum tepidum TLS) (protein)
chain: MNAESNPILDFATEYVYPAFSELTGTDKIVAFGDHSHKCPIYVPQTPPCTAECPAGEDIRAINRFLNGTDPSDDPLKSAWETATDTNPFPAVMGRICPHPCQSKCNRGVHDESVAINAVEQVLGNYGIEHNLKLKGPGADTGKRVAIIGGGPAGLSAAYQLRRKGHAVTIYDANEKLGGMVLYGIMGYRVDRKVLEAEIGRIIELGVETKMGVTIGKDITLEQLEAEYDAVFIAVGAQKGRALPVPGFEGTPGATNAIDFLKSYEVLGDDIPVGKHVVVIGDGNVAMDVARLALRLGSQATIISGVPREEMACFENEFDDAKNEGTTMHFLTGTVEVLGGASGVTGLRCTKMVKKEKGEEGWNSPIPFLRYKSNGESFEIEADMVVAAIGQATDLSGLGSAASGPWLKVDRNFRIPGREKLFGGGDALKVDLITTAVGHGRKAAYAIDAFLKGEPMPEEPYREITKPHKQDLLYFLHTPQAKRTSIKPEVVVGNHDELLEALTPEQAITESKRCMSCGFCFDCKQCVSFCPQEAITRFRDNPAGEKVYTDYTKCVGCHLCSLVCPCGYIQMGMGDGL
notes: full length (577 residues), C-terminal Strep-tag (… from primer), E. coli BL21(DE3) ΔiscR; primer-coded N-term MNAESNP, C-term GMGDGL
Km [3]: 267.5 ± 20.5 µM | Vmax [3]: 436 µmol/min/mg | kcat [3]: 460 s⁻¹ | kcat/Km [3]: 1.72e+06 M⁻¹ s⁻¹ | Km [4]: 95.2 ± 9.9 µM | Vmax [4]: 366 µmol/min/mg | kcat [4]: 387 s⁻¹ | kcat/Km [4]: 4.06e+06 M⁻¹ s⁻¹

B3: AvDsrL-1A (Allochromatium vinosum DSM 180) (protein)
chain: MATSSDEMKMKPTWRRFEDGEHVWDNLTDKIFNQDRSHKCPTYVHKTPPCQGSCPSGEDIRGWLQIVRGMEKPPQGMDWQEYAFRRSTDANPFPAMMGRVCPAPCQDGCNRNELEDFVGINSVEQFIGDTAIANGYTFEAPELDTGKRIAIVGGGPAGLAAAYQLRRKGHSCTIFEANDGLGGMFRFGIPGYRVPRDKLDAEIQRILDMGRVEVRLKTRIGTDVTVEQLEKDYDAILWAIGCQSGRGLPVPGWEGTPNCVTGVAFLKAFNEGRMKVTAGKVVCVGGGDTSIDVVSVARRLGHVNKSNPNELPETVIRDGYVAHDAASAAAAQGAEVTLTSLFTRDKMTASEHEVDDATREGVTILDGVMPVEVIKDANGRAIGLKVADCTMTDGRPTPVEGTERVLEADLIVSAIGQGGDLSGLEQLDNGRGLMDSDKFYQVPGKAGHFVAGDIIRPHLLTTAIGQAWIAADSIDAYVMQAEHKRRPKVDVHHFNLLDKLTEAHLAPESFVAGQAGDMRGTSDANYAIHNYEDRSGAEVIPHEELFLGHFNYVPRNLRKEEVPSADEVLGHFHERVIGLTEPEAIDEAKRCMSCGLCFECDNCVIFCPQDAVFRVDKGSRTTGRYVDTDYAKCIGCHICADVCPTGYIKMGLGE
notes: full length, C-terminal Strep-tag (… from primer), E. coli BL21(DE3) ΔiscR; primer-coded N-term MATSS, C-term IKMGLGE; FAD and four [4Fe-4S] per monomer; homodimer
Km [5]: 2563.0 ± 272.1 µM | Vmax [5]: 120 µmol/min/mg | kcat [5]: 146 s⁻¹ | kcat/Km [5]: 57000 M⁻¹ s⁻¹ | Km [6]: 86.7 ± 17.0 µM | Vmax [6]: 11.2 µmol/min/mg | kcat [6]: 13.5 s⁻¹ | kcat/Km [6]: 156000 M⁻¹ s⁻¹ | Km [7]: 1667.0 ± 230.2 µM | Vmax [7]: 4 µmol/min/mg | kcat [7]: 4.9 s⁻¹ | kcat/Km [7]: 3000 M⁻¹ s⁻¹ | Km [8]: 123.9 ± 10.3 µM | Vmax [8]: 145 µmol/min/mg | kcat [8]: 176 s⁻¹ | kcat/Km [8]: 1.42e+06 M⁻¹ s⁻¹
